The target in the test is high molecular weight-melanoma associated antigen (HMW-MAA), human (human) (UniProt Q6UVK1). In words: competition cell ELISA on HMW-MAA+ SK-MEL-28 cells, 1 h at 4 °C, SA-HRP; competitor: biotinylated scFv C21 (0.25 µg/well); axis gives µg of mAb, not a concentration. For orientation: ELISA stands for enzyme-linked immunosorbent assay.
high molecular weight-melanoma associated antigen (HMW-MAA), human (human), sequence (Q6UVK1 30-2322): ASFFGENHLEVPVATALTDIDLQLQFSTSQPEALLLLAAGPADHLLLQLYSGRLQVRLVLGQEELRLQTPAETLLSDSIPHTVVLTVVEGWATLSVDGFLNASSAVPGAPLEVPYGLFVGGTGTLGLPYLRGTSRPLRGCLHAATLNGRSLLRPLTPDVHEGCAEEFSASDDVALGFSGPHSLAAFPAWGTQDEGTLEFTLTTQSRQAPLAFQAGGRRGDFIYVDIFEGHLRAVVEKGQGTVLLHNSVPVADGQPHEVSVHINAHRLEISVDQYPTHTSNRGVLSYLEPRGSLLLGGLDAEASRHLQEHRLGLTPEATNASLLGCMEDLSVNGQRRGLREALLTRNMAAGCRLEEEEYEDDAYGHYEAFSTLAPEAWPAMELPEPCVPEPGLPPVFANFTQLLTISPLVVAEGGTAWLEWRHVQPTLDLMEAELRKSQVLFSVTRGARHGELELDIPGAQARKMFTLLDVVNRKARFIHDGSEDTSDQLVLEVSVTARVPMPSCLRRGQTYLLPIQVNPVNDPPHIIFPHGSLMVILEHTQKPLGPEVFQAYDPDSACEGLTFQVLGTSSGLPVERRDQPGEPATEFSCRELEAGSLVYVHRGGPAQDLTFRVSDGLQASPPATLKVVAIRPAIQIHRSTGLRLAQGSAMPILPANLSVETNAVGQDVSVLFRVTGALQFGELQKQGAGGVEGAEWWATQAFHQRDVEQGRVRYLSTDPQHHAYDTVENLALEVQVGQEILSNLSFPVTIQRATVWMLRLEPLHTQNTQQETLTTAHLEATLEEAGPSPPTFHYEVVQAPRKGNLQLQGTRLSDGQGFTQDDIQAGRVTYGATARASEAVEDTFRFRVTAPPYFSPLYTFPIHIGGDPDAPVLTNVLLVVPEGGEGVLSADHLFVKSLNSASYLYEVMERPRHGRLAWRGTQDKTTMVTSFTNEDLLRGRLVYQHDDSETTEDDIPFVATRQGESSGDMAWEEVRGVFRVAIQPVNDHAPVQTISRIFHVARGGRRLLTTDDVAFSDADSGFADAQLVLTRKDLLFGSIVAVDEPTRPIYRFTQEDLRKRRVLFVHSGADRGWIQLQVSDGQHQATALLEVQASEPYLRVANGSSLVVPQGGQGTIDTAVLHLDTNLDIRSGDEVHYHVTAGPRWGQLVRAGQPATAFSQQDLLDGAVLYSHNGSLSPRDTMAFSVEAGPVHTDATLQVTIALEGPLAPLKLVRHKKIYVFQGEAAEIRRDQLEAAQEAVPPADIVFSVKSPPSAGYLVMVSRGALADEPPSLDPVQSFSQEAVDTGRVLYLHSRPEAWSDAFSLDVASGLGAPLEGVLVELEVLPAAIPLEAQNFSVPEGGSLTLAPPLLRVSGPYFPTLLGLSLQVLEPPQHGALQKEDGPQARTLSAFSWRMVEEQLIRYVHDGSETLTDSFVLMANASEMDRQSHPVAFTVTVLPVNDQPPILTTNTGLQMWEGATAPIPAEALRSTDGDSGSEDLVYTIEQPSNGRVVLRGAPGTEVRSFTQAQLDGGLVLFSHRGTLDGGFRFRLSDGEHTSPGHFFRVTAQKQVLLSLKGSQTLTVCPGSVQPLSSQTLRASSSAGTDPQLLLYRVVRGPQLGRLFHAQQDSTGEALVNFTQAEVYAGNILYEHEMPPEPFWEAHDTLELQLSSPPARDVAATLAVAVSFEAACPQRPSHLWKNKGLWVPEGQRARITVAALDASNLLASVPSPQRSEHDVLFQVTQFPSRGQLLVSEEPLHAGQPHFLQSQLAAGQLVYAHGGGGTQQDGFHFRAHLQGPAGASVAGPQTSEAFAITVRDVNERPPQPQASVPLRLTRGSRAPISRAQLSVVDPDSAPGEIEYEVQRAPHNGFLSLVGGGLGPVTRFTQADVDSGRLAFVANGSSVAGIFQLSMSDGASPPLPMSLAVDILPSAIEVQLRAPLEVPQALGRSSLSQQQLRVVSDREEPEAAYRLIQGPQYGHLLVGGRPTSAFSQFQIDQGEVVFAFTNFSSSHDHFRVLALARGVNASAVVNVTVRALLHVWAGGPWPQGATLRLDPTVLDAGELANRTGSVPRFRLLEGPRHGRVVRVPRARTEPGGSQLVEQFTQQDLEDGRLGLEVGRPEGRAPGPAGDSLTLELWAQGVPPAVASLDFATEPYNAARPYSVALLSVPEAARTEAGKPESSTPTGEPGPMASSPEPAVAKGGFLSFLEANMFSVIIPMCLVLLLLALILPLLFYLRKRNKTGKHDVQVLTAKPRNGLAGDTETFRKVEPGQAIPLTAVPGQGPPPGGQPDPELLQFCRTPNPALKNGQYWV

On to “HMW-MAA-specific mouse mAb VF1-TP34 (antibody)”, for which the IC50 (read off the curve) is 0.03 µg.

The record behind these values is patent US20110200608A1.
